Measurements from paper PMC2148147 (The Journal of Cell Biology, 1998).

T1: Cdc3p (S. cerevisiae, UniProt P32457 1-520)
T1 sequence: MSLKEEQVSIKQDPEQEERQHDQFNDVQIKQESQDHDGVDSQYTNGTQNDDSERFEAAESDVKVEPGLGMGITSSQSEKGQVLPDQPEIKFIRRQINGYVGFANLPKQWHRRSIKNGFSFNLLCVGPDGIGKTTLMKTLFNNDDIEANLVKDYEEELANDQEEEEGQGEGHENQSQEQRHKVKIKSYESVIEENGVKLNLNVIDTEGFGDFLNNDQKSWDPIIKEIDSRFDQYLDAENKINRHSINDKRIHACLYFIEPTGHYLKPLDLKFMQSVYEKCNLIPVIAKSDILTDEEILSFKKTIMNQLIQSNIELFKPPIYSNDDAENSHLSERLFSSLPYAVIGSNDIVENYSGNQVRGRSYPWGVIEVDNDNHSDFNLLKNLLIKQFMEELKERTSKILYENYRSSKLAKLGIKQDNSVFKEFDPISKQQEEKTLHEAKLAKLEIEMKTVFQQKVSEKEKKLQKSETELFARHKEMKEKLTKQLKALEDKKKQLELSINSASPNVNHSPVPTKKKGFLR


Target: T1, Cdc3p
Test: SEC + other: sucrose gradient sedimentation

Row | Binder | stoichiometry N
1 | Cdc10p (natural protein) MDPLSSVQPASYVGFDTITNQIEHRLLKKGFQFNIMVVGQSGLGKSTLINTLFASHLIDSATGDDISALPVTKTTEMKISTHTLVEDRVRLNINVIDTPGFGDFIDNSKAWEPIVKYIKEQHSQYLRKELTAQRERFITDTRVHAILYFLQPNGKELSRLDVEALKRLTEIANVIPVIGKSDTLTLDERTEFRELIQNEFEKYNFKIYPYDSEELTDEELELNRSVRSIIPFAVVGSENEIEINGETFRGRKTRWSAINVEDINQCDFVYLREFLIRTHLQDLIETTSYIHYEGFRARQLIALKENANSRSSAHMSSNAIQR | ~1 Cdc10p per Cdc3p (2:2)
2 | Cdc11p (natural protein) MSGIIDASSALRKRKHLKRGITFTVMIVGQSGSGRSTFINTLCGQQVVDTSTTILLPTDTSTEIDLQLREETVELEDDEGVKIQLNIIDTPGFGDSLDNSPSFEIISDYIRHQYDEILLEESRVRRNPRFKDGRVHCCLYLINPTGHGLKEIDVEFIRQLGSLVNIIPVISKSDSLTRDELKLNKKLIMEDIDRWNLPIYNFPFDEDEISDEDYETNMYLRTLLPFAIIGSNEVYEMGGDVGTIRGRKYPWGILDVEDSSISDFVILRNALLISHLHDLKNYTHEILYERYRTEALSGESVAAESIRPNLTKLNGSSSSSTTTRRNTNPFKQSNNINNDVLNPASDMHGQSTGENNETYMTREEQIRLEEERLKAFEERVQQELLLKRQELLQREKELREIEARLEKEAKIKQEE | ~0.5 Cdc11p per Cdc3p (1:2)
3 | Cdc12p (natural protein) MSAATATAAPVPPPVGISNLPNQRYKIVNEEGGTFTVMLCGESGLGKTTFINTLFQTVLKRADGQQHRQEPIRKTVEIDITRALLEEKHFELRVNVIDTPGFGDNVNNNKAWQPLVDFIDDQHDSYMRQEQQPYRTKKFDLRVHAVLYFIRPTGHGLKPIDIETMKRLSTRANLIPVIAKADTLTAQELQQFKSRIRQVIEAQEIRIFTPPLDADSKEDAKSGSNPDSAAVEHARQLIEAMPFAIVGSEKKFDNGQGTQVVARKYPWGLVEIENDSHCDFRKLRALLLRTYLLDLISTTQEMHYETYRRLRLEGHENTGEGNEDFTLPAIAPARKLSHNPRYKEEENALKKYFTDQVKAEEQRFRQWEQNIVNERIRLNGDLEEIQGKVKKLEEQVKSLQVKKSHLK | ~1 Cdc12p per Cdc3p (2:2)
